According to the supplement of paper PMC7125110:
± gives the standard error. For some assays here: Fewer inactive variants are shown than the library holds.

B1: glmS ribozyme (parent)
chain: AUAAAAGCGCCAGAACUACAGAAAUGUAGUUGACGAGGAGGAGGUUUAUCGAAUUUUCGGCGGAUGCCUCCAAA

Key:
Settings in all cases: with glucosamine-6-phosphate
[1] = variants of: B1; assay: kcat; higher = faster cleavage; RNA array
Procedure, shortened: (§1)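 Barcoded ribozyme variants, transcribed in situ by E. coli RNA polymerase on sequenced MiSeq chips, were followed via a hybridised Cy3 probe at 37 °C. Glucosamine-6-phosphate ranged from 40 μM to 10 mM in HEPES/KCl/Mg(OAc)2 buffer. kobs came from decay fits to per-tile medians, and kcat and KM from weighted Michaelis–Menten fits.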

[2] = variants of: B1; assay: self-cleavage kobs at 10000 uM GlcN6P; higher = faster cleavage; RNA array
Procedure, shortened: as §1

[3] = variants of: B1; assay: self-cleavage kobs at 40 uM GlcN6P; higher = faster cleavage; RNA array
Procedure, shortened: as §1

[4] = variants of: B1; assay: self-cleavage kobs at 160 uM GlcN6P; higher = faster cleavage; RNA array
Procedure, shortened: as §1

[5] = variants of: B1; assay: self-cleavage kobs at 640 uM GlcN6P; higher = faster cleavage; RNA array
Procedure, shortened: as §1

[6] = variants of: B1; assay: KM; higher = weaker cofactor use; RNA array
Procedure, shortened: as §1

[7] = variants of: B1; assay: self-cleavage kobs at 2500 uM GlcN6P; higher = faster cleavage; RNA array
Procedure, shortened: as §1

| Variant | kcat [1] [s⁻¹] | self-cleavage kobs at 10000 uM GlcN6P [2] [s⁻¹] | self-cleavage kobs at 40 uM GlcN6P [3] [s⁻¹] | self-cleavage kobs at 160 uM GlcN6P [4] [s⁻¹] | self-cleavage kobs at 640 uM GlcN6P [5] [s⁻¹] | KM [6] [µM] | self-cleavage kobs at 2500 uM GlcN6P [7] [s⁻¹] |
| --- | --- | --- | --- | --- | --- | --- | --- |
| G29C U57A | 4.62e-05 ± 8e-06 | 3.78e-05 ± 1.1e-05 | – | – | – | – | – |
| A14G U55C | 0.0632 ± 0.029 | 0.0522 ± 0.015 | 0.00179 ± 0.00021 | 0.00449 ± 0.00098 | 0.0382 ± 0.012 | – | – |
| A33U U49G | 1.42e-05 ± 5.2e-07 | – | – | < 1e-05 | < 1e-05 | 44.7 ± 12 | – |
| U55A U69G | 6.88e-05 ± 8.3e-06 | 5.04e-05 ± 1.3e-05 | – | 8.26e-05 ± 1.6e-05 | 6.99e-05 ± 1.2e-05 | – | 7.05e-05 ± 8.6e-06 |
| A39G G66C | 0.00327 ± 0.0016 | – | 7.7e-05 ± 2.6e-05 | 0.000141 ± 3.4e-05 | 0.000484 ± 9.6e-05 | – | 0.00169 ± 0.00033 |
| A14G C68A | 9.34e-05 ± 1.3e-05 | 7.77e-05 ± 2.1e-05 | – | 2.91e-05 ± 1.3e-05 | 7.66e-05 ± 1.6e-05 | 254 ± 120 | 0.000105 ± 3.4e-05 |
| U46G U49G | 9.12e-05 ± 1.4e-05 | 7.66e-05 ± 1.7e-05 | < 1e-05 | – | – | – | 8.04e-05 ± 1.8e-05 |
| C50G U56A | 3e-05 ± 4.9e-06 | – | – | – | – | – | 4.14e-05 ± 1.9e-05 |
| U47A A48G | 7.44e-05 ± 1.1e-05 | 6.69e-05 ± 1.3e-05 | – | – | 7.58e-05 ± 2e-05 | – | 8.16e-05 ± 2.9e-05 |
| G38A G51U | < 1e-05 | < 1e-05 | < 1e-05 | – | < 1e-05 | – | – |
| A53C C68U | 9.65e-05 ± 7.1e-06 | 8.67e-05 ± 5.3e-06 | – | – | 3.67e-05 ± 7.7e-06 | 858 ± 310 | 8.77e-05 ± 1e-05 |
| C58U A64C C70A | 1.83e-05 ± 1.5e-06 | – | < 1e-05 | – | – | 363 ± 120 | – |
| G43U A53G | 4.73e-05 ± 1.7e-06 | – | < 1e-05 | – | – | 793 ± 120 | 3.6e-05 ± 1.5e-05 |
| G13U U69G | 2.13e-05 ± 6.6e-06 | – | – | – | – | – | – |
| G29U G66A | 0.0034 ± 0.00083 | 0.00316 ± 0.00039 | 8.79e-05 ± 1.5e-05 | 0.000716 ± 0.0002 | 0.000732 ± 0.00016 | 1710 ± 700 | 0.00168 ± 0.00038 |
| A12U A36U | 2.03e-05 ± 6.7e-07 | – | – | – | – | 2080 ± 230 | – |
| U31A G63U U69G | 3.2e-05 ± 9.9e-06 | – | – | – | – | – | – |
| U31C C34G | 1.37e-05 ± 8.9e-07 | – | – | – | – | 1370 ± 240 | – |

| Variant | kcat [1] [s⁻¹] | self-cleavage kobs at 10000 uM GlcN6P [2] [s⁻¹] | self-cleavage kobs at 40 uM GlcN6P [3] [s⁻¹] | self-cleavage kobs at 160 uM GlcN6P [4] [s⁻¹] | self-cleavage kobs at 640 uM GlcN6P [5] [s⁻¹] | KM [6] [µM] | self-cleavage kobs at 2500 uM GlcN6P [7] [s⁻¹] |
| --- | --- | --- | --- | --- | --- | --- | --- |
| A14U U69G | 3.85e-05 ± 7.5e-06 | 3.9e-05 ± 8.1e-06 | – | 4.67e-05 ± 1.3e-05 | – | – | 3.53e-05 ± 6.6e-06 |
| G29A U45A | 0.0109 ± 0.003 | 0.00857 ± 0.0012 | 0.000219 ± 4.2e-05 | 0.000411 ± 0.00014 | 0.00159 ± 0.00032 | 3200 ± 1300 | 0.00447 ± 0.0012 |
| A12U A33U C67U | 0.000242 ± 4.7e-05 | 0.000146 ± 2.9e-05 | – | – | – | 6520 ± 2600 | – |
| U31G G40A | 0.00279 ± 0.00072 | 0.00301 ± 0.00099 | 0.00011 ± 2.4e-05 | 0.000269 ± 5.2e-05 | 0.000715 ± 0.00014 | 1460 ± 560 | 0.0018 ± 0.00027 |
| G13C U31A | 0.000405 ± 2e-05 | 0.000314 ± 4.2e-05 | – | – | 7.16e-05 ± 1.3e-05 | 3100 ± 280 | 0.00017 ± 3.3e-05 |
| C11A G59U | 0.0133 ± 0.0031 | 0.0105 ± 0.0013 | 0.000273 ± 2.8e-05 | 0.000683 ± 8.7e-05 | 0.00335 ± 0.00043 | 2310 ± 700 | 0.00743 ± 0.0012 |
| A15C U56A G63C C70A | 5.44e-05 ± 1.8e-05 | – | – | 5.41e-05 ± 2.2e-05 | – | – | 7.34e-05 ± 3.6e-05 |
| A48G C71A | 2.26e-05 ± 4.7e-06 | – | – | – | – | – | 2.93e-05 ± 1.3e-05 |
| C50U C67U | 2.42e-05 ± 5.8e-06 | – | – | – | – | – | 3.69e-05 ± 1.4e-05 |
| A48U C71A | 0.000129 ± 1.2e-05 | 0.000111 ± 1.4e-05 | – | – | – | 1380 ± 540 | 0.000102 ± 2.6e-05 |
| G29A G40U | 0.000248 ± 5.6e-05 | 0.000182 ± 4e-05 | – | – | 8.95e-05 ± 1.9e-05 | – | 0.000207 ± 2.8e-05 |
| U31A C67G | 0.000586 ± 0.00013 | 0.000456 ± 7.3e-05 | – | – | 0.0001 ± 2.6e-05 | 3660 ± 1500 | 0.000201 ± 4.4e-05 |
| U54C C70U | 0.00794 ± 0.0014 | 0.00879 ± 0.0016 | 0.000628 ± 8e-05 | 0.00162 ± 0.00035 | 0.00435 ± 0.0008 | 507 ± 130 | – |
| U31A G41C | 0.000118 ± 1.6e-05 | – | – | – | 6.84e-05 ± 1.6e-05 | 501 ± 200 | 9.73e-05 ± 2.2e-05 |
| A14G G29U U47G C70G | 8.6e-05 ± 1.6e-05 | 0.000118 ± 2.8e-05 | – | – | 0.000119 ± 3.1e-05 | – | 6.72e-05 ± 1.5e-05 |
| A12U U56A U65G | 0.00677 ± 0.0022 | 0.00413 ± 0.00071 | 6.29e-05 ± 2e-05 | 0.00018 ± 4e-05 | 0.000445 ± 0.00012 | 6820 ± 3000 | 0.00177 ± 0.00048 |
| A15G G44U | 0.00046 ± 2.8e-05 | 0.0004 ± 3.1e-05 | – | 3.52e-05 ± 1.5e-05 | 0.000151 ± 2.5e-05 | 1550 ± 270 | 0.000252 ± 6.3e-05 |
